The test system of test [1] is polyclonal phospho-JNK antibody NEB #9251. Description: Binding of polyclonal phospho-JNK antibody to TAMRA-labelled peptides (fluorescence polarization). Set-up: species or system rabbit. To be noted: control. From the text: The polarization values dramatically increase when using the double-phosphorylated peptide substrate P1*^∘ in contrast to mono-phosphorylated labelled peptide P1^∘ (sequence see above).
Measurement of the Binding Affinity (KD) of Antibody NEB #9251:
This polyclonal antibody detects all three isoforms of the SAPK1/JNK proteins only when they are activated by dual phosphorylation at threonine183/tyrosine185. Binding of poly-clonal phospho-JNK antibody (at a dilution of 1:20) from NEB to TAMRA-labelled P1^∘- and P1*^∘ peptides (each 5 nM) was measured by fluorescence polarization.
A general note: Fluorescence polarisation rises when a labelled molecule tumbles more slowly, as on binding a larger partner.

The target of test [2] is Anti active SAPK1/JNK-specific polyclonal antibody, New England Biolabs NEB #9251. As to the kind of experiment: competition with TAMRA-P1*° (5 nM) for the antibody, competitor up to 1 µM (FIG. 3).
The target is the same in test [3]. As to the kind of experiment: fluorescence polarization, competition with TAMRA-P1*° (5 nM) for NEB #9251 (1:20) in presence of 100 µM P1° substrate peptide, 20 µM ATP, 10 mM MgCl2.
For test [4] the target is unchanged. As to the kind of experiment: fluorescence correlation spectroscopy, competition with TAMRA-P1*° (5 nM) for the NEB antibody (1:20).
Test [5] has the same target. Description: fluorescence polarization, 200 nM P1*° competing with TAMRA-P1*° (5 nM) for antibody 1:20, 0 h.

Non-standard residues stand in square brackets, D forms with d. No end group written: not given here. pY = N[C@@H](Cc1ccc(OP(=O)(O)O)cc1)C(=O)O; pT = C[C@@H](OP(=O)(O)O)[C@H](N)C(=O)O Bounds are passed on as bounds.

In the case of “TAMRA-labelled P1^∘-peptide: TAMRA-labelled mono-phosphorylated P1° peptide, control for antibody binding (KFMMTP[pY]VVTR-NH2; not fully specified (residue 5, N-terminus); also: TAMRA label, site not given here)”, the “binding of the polyclonal JNK antibody” value in test [1] was “no binding”.

B1: P1* peptide, H-Lys-Phe-Met-Met-pThr-Pro-Tyr-Val-Val-Thr-Arg-NH2 (peptide)
peptide: H-KFMM[pT]PYVVTR-NH2
SMILES: CSCC[C@H](NC(=O)[C@H](Cc1ccccc1)NC(=O)[C@@H](N)CCCCN)C(=O)N[C@@H](CCSC)C(=O)N[C@H](C(=O)N1CCC[C@H]1C(=O)N[C@@H](Cc1ccc(O)cc1)C(=O)N[C@H](C(=O)N[C@H](C(=O)N[C@H](C(=O)N[C@@H](CCCNC(=N)N)C(N)=O)[C@@H](C)O)C(C)C)C(C)C)[C@@H](C)OP(=O)(O)O
On to B1, for which the percent of the bound ligand displaced in test [2] was under 50%.

B2: P1*° peptide, H-Lys-Phe-Met-Met-pThr-Pro-pTyr-Val-Val-Thr-Arg-NH2 (peptide)
peptide: H-KFMM[pT]P[pY]VVTR-NH2
SMILES: CSCC[C@H](NC(=O)[C@H](Cc1ccccc1)NC(=O)[C@@H](N)CCCCN)C(=O)N[C@@H](CCSC)C(=O)N[C@H](C(=O)N1CCC[C@H]1C(=O)N[C@@H](Cc1ccc(OP(=O)(O)O)cc1)C(=O)N[C@H](C(=O)N[C@H](C(=O)N[C@H](C(=O)N[C@@H](CCCNC(=N)N)C(N)=O)[C@@H](C)O)C(C)C)C(C)C)[C@@H](C)OP(=O)(O)O
Take B2: the IC50 (in general, the concentration needed to halve the response being measured) turned out to be 35.1 nM in test [3] and 5 nM in test [4]. In test [5], this molecule gave a fluorescence polarization of 84.5 mP.

B3: P1° peptide, H-Lys-Phe-Met-Met-Thr-Pro-pTyr-Val-Val-Thr-Arg-NH2 (peptide)
peptide: H-KFMMTP[pY]VVTR-NH2
SMILES: CSCC[C@H](NC(=O)[C@H](Cc1ccccc1)NC(=O)[C@@H](N)CCCCN)C(=O)N[C@@H](CCSC)C(=O)N[C@H](C(=O)N1CCC[C@H]1C(=O)N[C@@H](Cc1ccc(OP(=O)(O)O)cc1)C(=O)N[C@H](C(=O)N[C@H](C(=O)N[C@H](C(=O)N[C@@H](CCCNC(=N)N)C(N)=O)[C@@H](C)O)C(C)C)C(C)C)[C@@H](C)O
As to B3, the percent of the bound ligand displaced in test [2] is under 50%.

The values are drawn from patent publication US7049080B2, “Process for detecting serine/threonine kinase activity” (priority 2000, dated 2006).
